Measured values reported in patent US20250042970A1 (AURINIA PHARMACEUTICALS, published 2025).
Numbering of substitutions follows the chain as printed. Blank lines part the entries; values can stand above or below the binder they belong to.

Legend:
[1] = target: T1, FLAG-tagged recombinant human APRIL (human, UniProt O75888 105-250); assay: KinExA
T1 construct: KINEXA ligand; also called huAPRIL
T1 sequence: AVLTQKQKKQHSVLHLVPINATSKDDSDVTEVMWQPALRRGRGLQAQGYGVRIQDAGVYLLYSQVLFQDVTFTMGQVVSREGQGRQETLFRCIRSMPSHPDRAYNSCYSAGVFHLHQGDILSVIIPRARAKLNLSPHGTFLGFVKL
Experimental: (§1) Equilibrium measurements were performed using FLAG-tagged, recombinant huBAFF and huAPRIL ligands. Fixed ligand concentrations of human BAFF or human APRIL were incubated with serial dilutions of the variant BCMA ECD-Ig fusion polypeptides, and free ligand was detected in a KINEXA 3200 Instrument. variant BCMA ECD-Ig fusion polypeptides were first diluted in equilibration buffer (1×PBS, pH 7.4, 1 mg/ml BSA) to a range of concentrations from 10 nM to 100 fM. The linear portion of the dilution series was typically 2-fold. Ligands were diluted in equilibration buffer to fixed concentrations ranging from 5 to 20 pM and then incubated with the variant BCMA-Ig dilutions in total reaction volumes ranging from 4.5 to 15 ml. Samples were incubated at room temperature for 48-72 hours to reach equilibrium. For each data point, a fresh column of 850 μl of bead slurry coated with Variant BAv-238475-Ig was introduced into the KINEXA flow cell. Equilibrated samples ranging from 1 to 5 ml reaction volume were injected at a flow rate of 0.25 ml/min. […] The DyLight 649 fluorescent signal was detected using the red filter set (620/30 nanometer excitation filter, 670/40 nanometer emission filter, 645 nanometer dichroic filter) on the KinExA instrument and converted to a voltage signal that was directly proportional to the concentration of free ligand in the equilibrated sample.
(§2) Table 5 provides the selectivities of exemplary variant BCMA polypeptides with respect to BAFF and APRIL.

FLAG-tagged human BAFF [2] = target: T2, FLAG-tagged human BAFF (human, UniProt Q9Y275 134-285, limits assumed); assay: KinExA
T2 construct: used in BIACORE (Ex. 9) and KINEXA (Ex. 11); also called huBAFF
Experimental: as §1, §2

[3] = target: T1, FLAG-tagged recombinant human APRIL; assay: KinExA; remark: listed apart in the source
Experimental: as §1
(§3) The standard kinetic exclusion assays and data analyses described above were performed on protein preparations of various variant BCMA ECD-Ig fusion polypeptides, as well as Z-TACI-Ig and [S40G]huBCMA ECD-Ig fusion polypeptides. FIG. 8A, FIG. 8B, and Table 4 summarize the binding data for representative variant BCMA ECD-Ig polypeptides and controls in molar concentrations of huBAFF or huAPRIL determined by KINEXA binding assays.

FLAG-tagged human BAFF [4] = target: T2, FLAG-tagged human BAFF; assay: KinExA; remark: listed apart in the source
Experimental: as §1, §3

[5] = target: T3, FLAG-tagged cynomolgous APRIL (cynomolgus monkey, UniProt A0ACM8R0G4 110-250 (rhesus entry)); assay: BIACORE SPR
T3 construct: FLAG-tagged, expressed with TPA signal peptide; also called cyAPRIL
T3 sequence: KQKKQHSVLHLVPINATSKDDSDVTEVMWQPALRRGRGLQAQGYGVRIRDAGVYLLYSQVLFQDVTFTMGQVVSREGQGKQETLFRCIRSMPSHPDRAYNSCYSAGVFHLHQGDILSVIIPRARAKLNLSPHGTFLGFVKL
Description: (§4) The standard kinetic assay measures binding kinetics of trimeric ligand (e.g., human BAFF, cynomolgus monkey APRIL, mouse BAFF, or mouse APRIL) coated on sensor chips and dimeric analytes (e.g., variant BCMA-Ig fusion proteins) in the mobile phase. […] For human BAFF, cynomolgus monkey APRIL, and mouse APRIL measurements, mouse monoclonal antibody (IgG1) anti-FLAG M2 (Sigma Aldrich, Cat. No. F1804) was immobilized on CM3 sensor chips (GE Healthcare, Cat. No. BR-1005-41) according to the manufacturer's protocol. Antibody was diluted to 30 μg/ml in immobilization buffer (10 mM pH 5±0.20; GE Healthcare; GE Healthcare, Catalog No. BR-1003-51). […] Unreacted sites were quenched with 35 μl of 1M ethanolamine-HCl, pH 8.5 (GE Healthcare, GE Healthcare, Cat. No. BR-1000-50). This procedure typically yielded 3,000-4,000 response units (RU) of coupled antibody.
(§5) The fusion polypeptides were diluted in HBS-EP buffer and flowed over ligand-coated sensor chips. The variant BCMA-Ig and surrogate control fusion proteins were injected at three concentrations (1.5 nM, 15 nM, and 150 nM at 30 μl/min for 2 minutes per association phase) in a single binding cycle, followed by a 20 minute incubation with HBS-EP buffer containing no protein at the same flow rate. A similar protocol was followed for Z-TACI-Ig, except that the injections were at 4.5 nM, 45 nM, and 450 nM.
(§6) The analyses described above were performed on protein preparations of representative variant BCMA ECD-Ig fusion polypeptides, as well as the Z-TACI-Ig and [S40G]huBCMA ECD-Ig control fusion polypeptides, and the data is presented in Table 1.

FLAG-tagged human BAFF [6] = target: T2, FLAG-tagged human BAFF; assay: BIACORE SPR
Description: as §4, §5, §6

[7] = target: T3, FLAG-tagged cynomolgous APRIL; assay: BIACORE SPR; remark: listed apart in the source
Experimental: (§7) For human BAFF, cynomolgus monkey APRIL, and mouse APRIL measurements, mouse monoclonal antibody (IgG1) anti-FLAG M2 (Sigma Aldrich, Cat. No. F1804) was immobilized on CM3 sensor chips (GE Healthcare, Cat. No. BR-1005-41) according to the manufacturer's protocol. Antibody was diluted to 30 μg/ml in immobilization buffer (10 mM pH 5±0.20; GE Healthcare; GE Healthcare, Catalog No. BR-1003-51). […] Unreacted sites were quenched with 35 μl of 1M ethanolamine-HCl, pH 8.5 (GE Healthcare, GE Healthcare, Cat. No. BR-1000-50). This procedure typically yielded 3,000-4,000 response units (RU) of coupled antibody.
as §5
(§8) Sequence optimization involved generating revertants from the variant BCMA ECD-Ig molecules using standard site-directed mutagenesis methods such as by SOEing as described herein above. Single as well as multiple revertants from twelve different variant-BCMA-pIg18 were generated, cloned in the pcDNA3.1 vector (Life Technologies, as described in Example 6), expressed and purified as described in Examples 6-8. The resulting proteins were assayed for their binding characteristics using Surface Plasmon Resonance as described in Example 9.

FLAG-tagged human BAFF [8] = target: T2, FLAG-tagged human BAFF; assay: BIACORE SPR; remark: listed apart in the source
Experimental: as §7, §5, §8

B1: Variant BAv3-10-Ig (Fc fusion, human)
chain: AGQCSQNEYFDRLIRACIPCQLRCSSNTPPLTCQRYCNAGVTNSVKGTNAERKSSVECPPSPAPPVAGPSVFLFPPKPKDTLMISRTPEVTCVVVDVSHEDPEVQFNWYVDGVEVHNAKTKPREEQFNSTFRVVSVLTVVHQDWLNGKEYKCKVSNKGLPAPIEKTISKTKGQPREPQVYTLPPSREEMTKNQVSLTCLVKGFYPSDISVEWESNGQPENNYKTTPPMLDSDGSFFLYSKLTVDKSRWQQGNVFSCSVMHEALHNHYTQKSLSLSPGK
notes: domain: Fc; also called Variant 3-10-Ig; BAv3-10-PIg18
- Selectivity for huAPRIL (KD BAFF/KD APRIL) [1]: 1.7 ratio
- Selectivity for huBAFF (KD APRIL/KD BAFF) (FLAG-tagged human BAFF [2]): 0.6 ratio
- fold improvement over control [3]: 0.47 fold
- fold improvement over control (FLAG-tagged human BAFF [4]): 400 fold
- fold improvement KD vs control [5]: 1.1 fold
- fold improvement KD vs control (FLAG-tagged human BAFF [6]): 24.6 fold

B2: Variant BAv9-1-Ig (Fc fusion, human)
chain: B1 chain with R12H
notes: domain: Fc; also called Variant 9-1-Ig; BAv9-1-pIg18
- Selectivity for huAPRIL (KD BAFF/KD APRIL) [1]: 2.1 ratio
- Selectivity for huBAFF (KD APRIL/KD BAFF) (FLAG-tagged human BAFF [2]): 0.47 ratio
- fold improvement over control [3]: 0.8 fold
- fold improvement over control (FLAG-tagged human BAFF [4]): 533 fold
- fold improvement KD vs control [5]: 0.7 fold
- fold improvement KD vs control (FLAG-tagged human BAFF [6]): 14.8 fold

B4: Variant 50238475-Ig (Fc fusion, human)
chain: B1 chain with F10Y, R12H, P19S, L22I, T28N, L31P, T32I
notes: domain: Fc; also called Parent 9; Variant 50238475-PIg18
- fold improvement KD vs control [5]: 0.2 fold
- fold improvement KD vs control (FLAG-tagged human BAFF [6]): 2.2 fold
- fold improvement over control [7]: 0.4 fold
- fold improvement over control (FLAG-tagged human BAFF [8]): 4.7 fold

B5: Variant BAv8-9-Ig (Fc fusion, human)
chain: B1 chain with R12H, I14L
notes: domain: Fc; also called Variant 8-9-Ig; BAv8-9-PIg18
- Selectivity for huAPRIL (KD BAFF/KD APRIL) [1]: 134 ratio
- Selectivity for huBAFF (KD APRIL/KD BAFF) (FLAG-tagged human BAFF [2]): 0.0075 ratio
- fold improvement over control [3]: 7.1 fold
- fold improvement over control (FLAG-tagged human BAFF [4]): 75.3 fold
- fold improvement KD vs control [5]: 0.7 fold
- fold improvement KD vs control (FLAG-tagged human BAFF [6]): 12.6 fold

B6: Variant BAv1-12-Ig (Fc fusion, human)
chain: B1 chain with I14V, R15N
notes: domain: Fc; also called Variant 1-12-Ig
- Selectivity for huAPRIL (KD BAFF/KD APRIL) [1]: 3.56 ratio
- Selectivity for huBAFF (KD APRIL/KD BAFF) (FLAG-tagged human BAFF [2]): 0.3 ratio
- fold improvement over control [3]: 0.68 fold
- fold improvement over control (FLAG-tagged human BAFF [4]): 231 fold
- fold improvement KD vs control [5]: 1.5 fold
- fold improvement KD vs control (FLAG-tagged human BAFF [6]): 9.8 fold

Now from value to binder:

- fold improvement KD vs control [5]: 0.00024 fold
- fold improvement KD vs control (FLAG-tagged human BAFF [6]): 1.3 fold
B3: BAv66-Ig (Fc fusion, human)
chain: B1 chain with R12H, L22G
notes: domain: Fc; also called Variant BAv66-Ig

- Selectivity for huAPRIL (KD BAFF/KD APRIL) [1]: 0.62 ratio
- Selectivity for huBAFF (KD APRIL/KD BAFF) (FLAG-tagged human BAFF [2]): 1.6 ratio
- fold improvement over control [3]: 0.1 fold
- fold improvement over control (FLAG-tagged human BAFF [4]): 224 fold
- fold improvement KD vs control [5]: 0.6 fold
- fold improvement KD vs control (FLAG-tagged human BAFF [6]): 7.6 fold
B7: Variant BAv11-6-Ig (Fc fusion, human)
chain: B1 chain with I14L, L22V
notes: domain: Fc; also called Variant 11-6-Ig; BAv11-6-PIg18
